# Where a chain is given by its changes, count along the chain named.
# B1: Anti-ICAM1 G12 (antibody, human IgG1, lambda, V domains shown)
# VH: QVQLQESGGGLVQPGGSLRLSCAASGFTFSSYAMSWVRQAPGKGLEWVSAISGSGGSTYYADSVKGRFTISRDNSKNTLYLQMSSLRAEDTAFYYCANSAYTGGWYDYWGHGTLVTVSS
# VL: ASELTQDPAVSVALGQTVKITCQGDSLRTYYASWYQQRPGQAPVLVIYGENSRPSGIPDRFSGSSSGNTASLTITGAQAEDEADYYCNSRDSSGNHLRVFGGGTKLTVLG
# notes: Human IgG1 with a lambda light chain; also called anti-ICAM1 clone G12
# B2: 23B3 (antibody, human IgG1, kappa, V domains shown)
# VH: QSVEESGGRLVTPGTPLTLTCTVSGFSLSNYDMTWVRQAPGRGLEWIGVISSGDNTNYARWAKGRFTISKTSSTTVDLKITSPTTEDTATYFCARILYNKGRYYFTFWGPGTLVTVSS
# VL: AQVLTQTPSSVSAAVGGTVTINCQSSQSIANSDELAWYQQKPGQPPKLLIYDASTLAPGVPSRFSGSGSGTQFTLTISGVQSDDAATYYCQGTVYDSGWYAAFGGGTEVVVKR
# notes: Rabbit-human chimeric anti-CD38: rabbit VH and VL on human IgG1 and kappa constant regions
# B3: 23D1 (antibody, human IgG1, kappa, V domains shown)
# VH: QELVESGGGLFQPGGSLALTCKASGFSLSNIYVMCWVRQAPGKGLEWIACIGTGSGDTDYATWAKGRFTISKTSSTTVTLQMTSLTAADTATYFCARDPGAGTWNLWGPGTLVTVSS
# VL: DIVMTQTPSSVEAAVGGTVTIKCQASQTIGSRLAWYQQKPGQPPKLLIYSASTLASGVSSRFKGSGSGTQFTLTISDLDSADAATYYCQSYYYTSTSYPNAFGGGTEVVVKR
# notes: as for B2
# B4: 25C3 (antibody, human IgG1, kappa, V domains shown)
# VH: QEQLEESGGDLVKPGASLTLTCKASGFSFSSAYDMCWVRQAPGKGLEWVACLYTVSSDSIYYASWAKGRFTISRTSSTTVTLQMTSLTAADTATYFCARDGDYFALWGPGTLVTVSS
# VL: DIVMTHTPASVEAAVGGTVTIKCQASQNIGGYLSWYQQKPGQRPKLLIYRASTLASGVPSRFKGSGSGTQFTLTISDLESADAATYYCQTYYYSGSSRYWAFGGGTEVVVKR
# notes: as for B2
# B5: 25E4 (antibody, human IgG1, kappa, V domains shown)
# VH: QSLEESGGRLVTPGTPLTLTCTVSGIDLSIYTMAWVRQAPGKGLEYIGIISGYGTTYYATWAKGRFIVSKTSTTVDLKITSPTTEDTATYFCVRTTVQSTDLWGPGTLVTVSS
# VL: DIVMTQTPASVEAAVGGTVTINCQASQNIYSNLAWYQQKPGQRPKLLIYKASTLASGVSSRFKGSGSGTEFTLTISDLASADAATYYCQSYYGATSSSFGYGFGGGTEVVVKR
# notes: as for B2
# B6: 25F12 (antibody, human IgG1, kappa, V domains shown)
# VH: RSLEESGGRLVTPGTPLTLTCTTSGFSLSSYDMSWVRQAPGKGLEWIGYITYGGNIYYATWAKGRFTTSKTSTTVDLKITSPTTEDTATYFCARTLYTGGRYYFSLWGPGTLVTVSS
# VL: B2 VL with A14V, D33N, L35V, P42L, P58S, T76I, S97N, G98V
# notes: as for B2
# B7: 27F6 (antibody, human IgG1, kappa, V domains shown)
# VH: QSLEESGGGLVKPGASLTLTCKASGFSFSSGCDMCWVRQAPGKGLEWISCIYTGSGSTYYANWAKGRFTISRTSSTTVTLQMTSLTAADTATYFCAGDSDYLGLWGPGTLVTVSS
# VL: DIVMTQTPSSVEAAVGGTVTIKCQASQNIGNYLAWYQQKPGQPPKVLIYRASTLASGVPSRFKGSGSGTHFTLTISDLESADAATYYCQSYYYTTDDNYRSWAFGGGTEVVVKR
# notes: as for B2
# B8: 17F7 (antibody, human IgG1, kappa, V domains shown)
# VH: QSVEESGGRLVTPGTPLTLTCTASGFSLSSYYMSWVRQAPGKGLEWIGFISKTAITYYASWARGRFTISKTSTAVDLKITSPTTEDTATYFCARVDAYSAGDLWGPGTLVTVSS
# VL: AQVLTQTPSSVSAAVGGTVTINCQASQSVYSDNRLSWFQQKSGQPPKLLIYSTSSLASGVPSRFSGSGSGTQFTLTISGVQSDDAASYYCQGEFICTSADCFVFGGGTEVVVKR
# notes: as for B2
# B9: 18E4 (antibody, human IgG1, kappa, V domains shown)
# VH: QSLEESGGDLVKPGASLTLTCTASGFSFNNYWICWIRQAPGKGLEWVACIYSPSGDIKYYANWAKGRFTVSKTSSTTVTLQMTSLTGADTATYFCARELSGSSYEGYFESWGPGTLVTVSS
# VL: AQVLTQTPSSVSAAVGGTVTINCQCSQSVYGHNWLAWYQHKPGQPPKLLMYRASNLASGVPSRFKGSGSGSQFTLTIGEVQSDDAATYYCQGYYNGGSYAFGGGTEVVVRR
# notes: as for B2
# B10: 17E9 (antibody, human IgG1, kappa, V domains shown)
# VH: QSVEESGGRLVTPGTPLTLTCTASGFSLSRYYVTWVRQAPGKGLEWIGIIYISGTTYYATWAKGRFTISKSATTVDLRIASPTTEDTATYFCAAAWPVGTYVLPLWGPGTLVTVSS
# VL: AAVLTQTPSPVSAAVGGTVTIKCQSSQSVVNANNLSWYQQKPGQPPKLLIYLASTLASGVPSRFSGSGSGTQFTLTISSVQSDDAATYYCLGVYDDDGDNAFGGGTEVVVKR
# notes: as for B2
# Biological target: T1, recombinant human ICAM1 (human, UniProt P05362 28-480, limits assumed)
# Assay: SPR (Biacore T200), antigen immobilised, antibody injected
# Experimental: The binding kinetics of the bispecific anti-CD38/anti-ICAM1 antibodies were evaluated using Biacore T200 (GE Healthcare). The recombinant CD38 or ICAM1 were immobilized at low density on Biacore Series S CM5 sensor chips using the amine coupling kit (GE Healthcare). Serial 3-fold dilutions of each antibody were injected at a flow rate of 30 ul/min. Each sample was analyzed with 3m association and 15 min dissociation at room temperature (25° C.). After each injection, the chip was regenerated using 10 mM Glycine pH1.5. A 1:1 Langmuir model of simultaneous fitting of kₒₙ and koff was used for kinetics analysis.
# T1 sequence (P05362 28-480 limits assumed): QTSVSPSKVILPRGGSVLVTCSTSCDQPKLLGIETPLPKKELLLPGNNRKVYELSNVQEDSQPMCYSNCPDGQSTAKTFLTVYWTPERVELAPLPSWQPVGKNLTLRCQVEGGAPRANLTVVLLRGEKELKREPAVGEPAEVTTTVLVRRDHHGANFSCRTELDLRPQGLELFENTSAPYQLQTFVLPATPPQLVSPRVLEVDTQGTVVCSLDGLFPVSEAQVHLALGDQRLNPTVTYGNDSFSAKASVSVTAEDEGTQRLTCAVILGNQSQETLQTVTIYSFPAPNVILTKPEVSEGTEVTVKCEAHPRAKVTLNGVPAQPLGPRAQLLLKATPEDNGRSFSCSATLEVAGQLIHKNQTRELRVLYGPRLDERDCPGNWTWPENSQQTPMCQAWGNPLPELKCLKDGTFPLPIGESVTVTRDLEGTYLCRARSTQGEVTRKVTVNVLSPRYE
Binder,Kd,koff,kon
B1,3.2 nM,0.000763 s⁻¹,242000 M⁻¹ s⁻¹

# Biological target: T1, recombinant human ICAM1
# Assay: SPR (Biacore 8K), antibody captured, antigen injected
Binder,Kd,koff,kon
B1,12.2 nM,0.00331 s⁻¹,272000 M⁻¹ s⁻¹

# Biological target: T2, Rhesus-ICAM1 (rhesus, UniProt Q5NKV6 28-480, limits assumed)
# T2 sequence (looked up): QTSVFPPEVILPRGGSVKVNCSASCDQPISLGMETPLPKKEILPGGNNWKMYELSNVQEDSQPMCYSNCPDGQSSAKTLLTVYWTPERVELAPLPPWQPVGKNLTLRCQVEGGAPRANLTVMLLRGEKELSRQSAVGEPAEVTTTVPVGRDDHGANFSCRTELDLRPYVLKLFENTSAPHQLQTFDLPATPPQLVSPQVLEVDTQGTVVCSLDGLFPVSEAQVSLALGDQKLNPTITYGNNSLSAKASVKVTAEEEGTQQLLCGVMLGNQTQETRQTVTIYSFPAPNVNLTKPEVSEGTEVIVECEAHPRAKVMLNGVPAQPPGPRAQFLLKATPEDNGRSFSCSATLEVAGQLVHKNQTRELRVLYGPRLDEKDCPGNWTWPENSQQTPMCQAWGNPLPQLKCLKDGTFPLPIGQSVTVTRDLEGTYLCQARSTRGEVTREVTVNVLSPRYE
# Assay: as above
Binder,Kd,koff,kon
B1,17.7 nM,0.0224 s⁻¹,1.27e+06 M⁻¹ s⁻¹

# Biological target: T3, CD38 on the surface of Daudi cells (human, UniProt P28907 1-300)
# T3 construct: whole, on cells
# Assay: flow cytometry, Daudi cells;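 note: purified antibodies incubated with Daudi cells for 1 h at 4 °C, bound antibody detected by fluorescent secondary antibody and read by flow cytometry as MFI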
# Experimental: (§1) Harvested cells were centrifuged at 2000 rpm for 5 min and resuspended with 10-15 ml ice-cold culture medium. Cells were counted and then 3×10⁶ cells were resuspended per mL of blocking buffer (PBS plus 2% FBS). 100 μl of the cell suspension was dispensed into each well of a 96-well plate and incubated at room temperature for 10-20 min. […] While incubating, purified antibodies were diluted to the desired dilution with blocking buffer. After a 10-20 minutes incubation, cells were centrifuged for 5 min at 2000 rmp in a refrigerated centrifuge. Blocking buffer was aspirated, and cells were resuspended in 100 μl/well diluted antibodies and incubated for 1 hour at 4° C. The cells were then washed 3 times with PBS plus 2% FBS. After the final wash, the cells were resuspended in 100 μl 1:500 diluted secondary antibody (Invitrogen, Cat #: A10631) and incubated for 1 hour at 4° C. in the dark. The cells were then washed 3 times with 200 μl PBS by centrifuging at 2000 rpm for 5 min. After the last wash, the cells were resuspended in 300 μl cold PBS and analyzed on a FACSVerse™ (BD Biosciences) flow cytometer.
Binder,EC50,Max Binding MFI
B2,0.325 nM,1330 MFI
B3,0.704 nM,1000 MFI
B4,0.347 nM,1180 MFI
B5,0.503 nM,859 MFI
B6,0.263 nM,1030 MFI
B7,0.298 nM,1200 MFI
B8,0.432 nM,1530 MFI
B9,0.9 nM,1580 MFI
B10,0.263 nM,2260 MFI

# Biological target: T4, cynomolgus CD38 ECD (cynomolgus, UniProt Q5VAN0 44-301, biotinylated on the AviTag during preparation)
# T4 construct: also called Cyno-CD38; Avi-Cyno CD38 ECD
# Assay: ELISA: plate coated with 1 ug/ml recombinant cynomolgus CD38 ECD, serially diluted antibody, OD450
# Experimental: (§2) The plate was coated overnight at 4° C. with 1 μg/ml recombinant CD38 or ICAM1. After washing 3 times, the plate was blocked with 300 μl 1% BSA in PBST at 37° C. for 1 hour. Serially diluted antibodies were added and incubated at 37° C. for 1 hour. The plate was then washed 4 times with PBST and incubated with 1:5000 diluted 2nd antibody (Sigma, Cat #A0293) at 37° C. for 1 hour.
row,Binder,EC50 (read off the curve)
1,B2,~0.06 nM
2,B3,~0.06 nM
3,B4,~0.06 nM
4,B5,~0.06 nM
5,B6,~0.06 nM
6,B7,~0.06 nM
7,B8,~0.06 nM
8,B9,~0.06 nM
9,B10,~0.06 nM

# Biological target: T2, Rhesus-ICAM1
# Assay: ELISA: plate coated with 1 ug/ml recombinant rhesus ICAM1 ECD, serially diluted antibody, OD450
# Experimental: as §2
row,Binder,EC50 (read off the curve)
1,B1,~0.04 nM

# Biological target: T5, recombinant human CD38 (human, UniProt P28907 43-300, limits assumed)
# Assay: ELISA: plate coated with 1 ug/ml recombinant human CD38 ECD, serially diluted antibody, OD450
# Experimental: as §2
row,Binder,EC50 (read off the curve)
1,B2,~0.06 nM
2,B3,~0.06 nM
3,B4,~0.06 nM
4,B5,~0.06 nM
5,B6,~0.06 nM
6,B7,~0.06 nM
7,B8,~0.06 nM
8,B9,~0.06 nM
9,B10,~0.06 nM

# Biological target: T5, recombinant human CD38
# Assay: SPR (Biacore 8K), antibody captured, antigen injected
# Experimental: (§3) The binding kinetics of the anti-CD38 and anti-ICAM1 antibodies were evaluated on a Biacore 8K instrument (GE Healthcare). Biacore Series S CM5 sensor chips were immobilized with monoclonal mouse anti-human IgG (Fc) antibody (human antibody capture kit from GE Healthcare). Antibodies were captured on each flow cell. Serial 3-fold dilutions of each antigen were injected at a flow rate of 30 μl/min. Each sample was analyzed with 1 min association and 10 min dissociation at room temperature (25° C.). After each injection, the chip was regenerated using 3M MgCl₂. A 1:1 Langmuir model of simultaneous fitting of kₒₙ and koff was used for kinetics analysis.
Binder,Kd,koff,kon
B2,0.029 pM,2.77e-08 s⁻¹,970000 M⁻¹ s⁻¹
B3,670 pM,0.000125 s⁻¹,187000 M⁻¹ s⁻¹
B4,30 pM,3.48e-05 s⁻¹,1.15e+06 M⁻¹ s⁻¹
B5,70 pM,2.59e-05 s⁻¹,380000 M⁻¹ s⁻¹
B6,10 pM,2.24e-05 s⁻¹,1.84e+06 M⁻¹ s⁻¹
B7,310 pM,0.000117 s⁻¹,376000 M⁻¹ s⁻¹
B8,7560 pM,0.00378 s⁻¹,500000 M⁻¹ s⁻¹
B9,270 pM,8.13e-05 s⁻¹,303000 M⁻¹ s⁻¹
B10,150 pM,0.000142 s⁻¹,923000 M⁻¹ s⁻¹

# Biological target: T4, cynomolgus CD38 ECD
# Assay: as above
# Experimental: as §3
Binder,Kd,koff,kon
B2,0.04 nM,9.46e-05 s⁻¹,2.43e+06 M⁻¹ s⁻¹
B3,0.55 nM,0.000294 s⁻¹,536000 M⁻¹ s⁻¹
B4,0.15 nM,0.000187 s⁻¹,1.23e+06 M⁻¹ s⁻¹
B5,0.14 nM,0.000175 s⁻¹,1.23e+06 M⁻¹ s⁻¹
B6,0.18 nM,0.000185 s⁻¹,1.04e+06 M⁻¹ s⁻¹
B7,0.28 nM,0.00029 s⁻¹,1.02e+06 M⁻¹ s⁻¹
B8,2.32 nM,0.00382 s⁻¹,1.65e+06 M⁻¹ s⁻¹
B9,0.42 nM,0.000236 s⁻¹,563000 M⁻¹ s⁻¹
B10,0.06 nM,0.000166 s⁻¹,2.64e+06 M⁻¹ s⁻¹

# Biological target: T1, recombinant human ICAM1
# Assay: ELISA: plate coated with 1 ug/ml recombinant human ICAM1 ECD, serially diluted antibody, OD450
# Experimental: as §2
row,Binder,EC50 (read off the curve)
1,B1,~0.04 nM

# Biological target: T6, ICAM1 on the surface of DU145 cells (human, UniProt P05362 28-532)
# T6 construct: whole, on cells
# Assay: flow cytometry, DU145 cells;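 note: purified antibodies in dilution series bound to cells for 1 h at 4 °C, detected with a fluorescent secondary antibody (1 h, 4 °C, dark), read by flow cytometry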
# Experimental: as §1
# T6 sequence (P05362 28-532): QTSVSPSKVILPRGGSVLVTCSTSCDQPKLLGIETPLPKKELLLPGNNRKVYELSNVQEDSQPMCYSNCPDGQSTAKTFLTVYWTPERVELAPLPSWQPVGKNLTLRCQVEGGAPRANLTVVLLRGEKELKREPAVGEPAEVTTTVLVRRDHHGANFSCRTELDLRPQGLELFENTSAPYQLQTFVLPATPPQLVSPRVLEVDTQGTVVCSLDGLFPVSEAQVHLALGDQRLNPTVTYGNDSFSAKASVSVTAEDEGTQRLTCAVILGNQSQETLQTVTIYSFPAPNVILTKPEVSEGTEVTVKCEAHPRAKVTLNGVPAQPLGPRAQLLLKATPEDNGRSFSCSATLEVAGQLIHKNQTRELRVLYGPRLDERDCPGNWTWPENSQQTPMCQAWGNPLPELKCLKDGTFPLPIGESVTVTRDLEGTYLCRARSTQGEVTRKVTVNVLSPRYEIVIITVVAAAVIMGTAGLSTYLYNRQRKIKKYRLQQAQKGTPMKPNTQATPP
Binder,EC50,Max Binding MFI
B1,0.26 nM,5010 MFI

# Reference: patent US20220002432A1 (VIRTUOSO BINCO, published 2022)
